US20190367612A1 (Daiichi Sankyo, published 2019)
One block for each binder: values may come before it. Bridge positions count the residues as written; N and C are the ends. Ends that are not written are not given here. * marks the point of attachment. Biotin = O=C1N[C@H]2[C@H](CS[C@H]2CCCCC(=O)*)N1

B3: human GPRC5D amino-terminal peptide MYKDCIESTGDYFLLCDAEGPWGIILE-K(Biotin)-NH2, having an intramolecular disulfide bond (peptide)
peptide: MYKDCIESTGDYFLLCDAEGPWGIILEK(Biotin)-NH2
modifications: disulfide 5-16 (inferred)
notes: Peptide Institute synthetic peptide; also called amino-terminal peptide of biotinylated human GPRC5D (disulfide bond present)

Experiments:
[1] = target: B3; assay: SPR (Biacore T200), kinetic analysis: biotinylated amino-terminal peptide of human GPRC5D on Sensor Chip CAP, scFv as analyte
Protocol: The binding activity of the anti-GPRC5D antibodies against the amino-terminal peptide of human GPRC5D was tested by SPR using Biacore T200. The amino-terminal peptide of biotinylated human GPRC5D diluted to 2 nM with HBS-EP+ (manufactured by GE Healthcare Bio-Sciences Corp.) was immobilized on Sensor Chip CAP (manufactured by GE Healthcare Bio-Sciences Corp.) by contact at a rate of 10 μL/min for 180 seconds. Then, Kd was calculated by kinetic analysis using a plurality of concentrations of each scFv diluted with HBS-EP+ as analytes.

[2] = target: T1, human GPRC5D (human, UniProt Q9NZD1 1-345); assay: flow cytometry on KMS-34 cells (endogenous human GPRC5D), anti-FLAG antibody and Alexa 488 anti-mouse IgG detection
T1 construct: whole, on cells; also called hGPRC5D; G-protein coupled receptor family C group 5 member D
Protocol: The KMS-34 cells were recovered by centrifugation, washed twice with a FACS buffer (PBS containing 0.5% BSA and 2 mM EDTA, pH 7.4), and then suspended in the same solution as above. The C2037, C3048, C3015 or C3022 scFv was added to the obtained cell suspension, and the mixture was left standing at 4° C. for 2 hours. After washing twice with a FACS buffer, the cells were suspended by the addition of an anti-FLAG antibody (Sigma-Aldrich Corp.), and the mixture was further left standing at 4° C. for 1 hour. After washing twice with a FACS buffer, the cells were suspended by the addition of Alexa 488-labeled anti-mouse IgG antibody (Jackson ImmunoResearch Laboratories, Inc.), and the mixture was further left standing at 4° C. for 1 hour. After washing twice with a FACS buffer, the cells were fixed in 1% PFA (prepared from a 32% paraformaldehyde solution (Electron Microscopy Sciences)), followed by detection using a flow cytometer (FACSCanto™ II; Becton, Dickinson and Company). The data was analyzed using Flowjo (Tree Star, Inc.).

[3] = target: B3; assay: ELISA, chemiluminescence: biotinylated amino-terminal peptide of human GPRC5D on NeutrAvidin, scFv detected with HRP anti-FLAG antibody
Protocol: (§1) NeutrAvidin diluted to 1 μg/mL with PBS was added in an amount of 50 μL/well to 96-well Maxi-sorp plate (Black, Nunc/Thermo Fisher Scientific Inc.), and the plate was left standing overnight at 4° C. for immobilization. After washing three times with an ELISA buffer, the amino-terminal peptide of the biotinylated human or cynomolgus monkey GPRC5D (used in Example 10)-1) diluted to 1 μg/mL with PBS was added thereto, and the plate was shaken at room temperature for 1 hour. After washing three times with an ELISA buffer, the plate was blocked with Blocker Casein and washed three times with an ELISA buffer. Then, the C2037, C3048, C3015, or C3022 scFv was added to the plate and reacted at room temperature for 2 hours. After washing three times with an ELISA buffer, a horseradish peroxidase (HRP)-labeled anti-FLAG antibody diluted 5000-fold with an ELISA buffer was added thereto in an amount of 50 μL/well and reacted at room temperature for 1 hour. After washing five times with an ELISA buffer, SuperSignal Pico ELISA Chemiluminescent substrate was added. After 10 minutes, the chemiluminescence was measured using a plate reader.

[4] = target: T2, amino-terminal peptide of cynomolgus monkey GPRC5D …(Biotin)-NH2 (cynomolgus monkey, C-terminal lysine carrying biotin, C-terminal amide); assay: ELISA, chemiluminescence: biotinylated amino-terminal peptide of cynomolgus monkey GPRC5D on NeutrAvidin, scFv detected with HRP anti-FLAG antibody
T2 construct: also called amino-terminal peptide of biotinylated cynomolgus monkey GPRC5D
T2 peptide: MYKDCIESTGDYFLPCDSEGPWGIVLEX
Protocol: as §1

[5] = target: T1, human GPRC5D; assay: flow cytometry on KHM-1B cells (human GPRC5D), PE anti-human IgG Fc, rMFI over human IgG isotype control
[6] = target: T3, mouse GPRC5D (mouse, UniProt Q9JIL6 1-344); assay: flow cytometry, in the same way as in Example 5)-2
T3 construct: whole, on cells
T3 sequence (looked up): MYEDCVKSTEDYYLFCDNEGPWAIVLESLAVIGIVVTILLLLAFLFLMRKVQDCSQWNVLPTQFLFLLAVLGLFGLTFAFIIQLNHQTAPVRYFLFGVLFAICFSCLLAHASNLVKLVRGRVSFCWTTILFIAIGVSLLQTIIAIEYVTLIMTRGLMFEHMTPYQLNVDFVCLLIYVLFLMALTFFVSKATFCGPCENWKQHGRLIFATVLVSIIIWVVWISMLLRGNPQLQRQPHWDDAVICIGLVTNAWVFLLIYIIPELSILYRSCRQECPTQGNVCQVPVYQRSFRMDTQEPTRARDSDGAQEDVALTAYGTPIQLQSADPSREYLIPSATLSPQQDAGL

[7] = target: T4, rat anti-GPRC5D antibody 2A4; assay: flow cytometry competition on KMS-34 cells: the peptide with the intramolecular disulfide bond is added together with a fixed amount of 2A4; readout: binding of 2A4 to human GPRC5D on the cells
T4 construct: Rat IgG2b, kappa chain
T4 sequence (VH, as listed by the source, chain 1 of 2): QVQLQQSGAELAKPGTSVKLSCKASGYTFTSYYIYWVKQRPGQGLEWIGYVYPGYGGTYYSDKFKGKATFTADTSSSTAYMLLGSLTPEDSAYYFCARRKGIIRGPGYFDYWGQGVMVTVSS
T4 sequence (VL, as listed by the source, chain 2 of 2): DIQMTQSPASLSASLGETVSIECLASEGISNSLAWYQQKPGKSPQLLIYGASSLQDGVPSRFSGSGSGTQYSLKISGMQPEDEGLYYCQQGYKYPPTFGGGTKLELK
Protocol: (§2) Human multiple myeloma cell line KMS-34 cells expressing GPRC5D were adjusted to a concentration of 2×10⁶ cells/mL with PBS containing 5% FBS, inoculated in an amount of 100 μL/well to a 96-well U-bottomed microplate, and centrifuged to remove a supernatant. Each rat anti-GPRC5D antibody (2A4, 2B1, and 7B4) adjusted to 7.5 μg/mL in Example 1)-7, or Rat IgG2b isotype control antibody (Medical & Biological Laboratories Co., Ltd. (MBL)) was added thereto in an amount of 100 μL/well. The two types of peptides used in Example 2)-2-1 were each adjusted to 17 ng/mL to 34 μg/mL with PBS and added in an amount of 100 μL/well to the wells containing the antibody dilution, and the plate was left standing at 4° C. for 1 hour. The cells were washed twice with PBS containing 5% FBS. Then, PE Goat Anti-Rat Ab (Becton, Dickinson and Company) diluted 100-fold with PBS containing 5% FBS was added thereto in an amount of 100 μL/well, and the plate was left standing at 4° C. for 1 hour. The cells were washed twice with PBS containing 5% FBS and then resuspended in PBS containing 5% FBS, followed by detection using a flow cytometer (FACSCanto™ II; Becton, Dickinson and Company). The data was analyzed using Flowjo (Tree Star, Inc.). The PE fluorescence intensity of the cell fraction was plotted to a histogram, and the mean fluorescence intensity (MFI) was calculated. […]

[8] = target: T5, rat anti-GPRC5D antibody 7B4; assay: flow cytometry competition on KMS-34 cells: the peptide with the intramolecular disulfide bond is added together with a fixed amount of 7B4; readout: binding of 7B4 to human GPRC5D on the cells
T5 construct: Rat IgG2b, kappa chain
T5 sequence (VH, as listed by the source, chain 1 of 2): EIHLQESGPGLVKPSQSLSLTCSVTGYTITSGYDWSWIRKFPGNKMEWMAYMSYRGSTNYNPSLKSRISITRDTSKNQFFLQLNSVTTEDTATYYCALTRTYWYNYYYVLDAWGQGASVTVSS
T5 sequence (VL, as listed by the source, chain 2 of 2): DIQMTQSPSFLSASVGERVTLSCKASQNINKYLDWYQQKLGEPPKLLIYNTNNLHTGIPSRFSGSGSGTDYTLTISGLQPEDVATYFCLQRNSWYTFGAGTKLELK
Protocol: as §2

[9] = target: T6, rat anti-GPRC5D antibody 2B1; assay: flow cytometry competition on KMS-34 cells: the peptide with the intramolecular disulfide bond is added together with a fixed amount of 2B1; blocked: binding of 2B1 to human GPRC5D on the cells
T6 construct: Rat IgG2b, kappa chain
Protocol: as §2

[10] = target: T7, cynomolgus monkey GPRC5D (cynomolgus monkey); assay: flow cytometry on KMS-11_cGPRC5D cells (cynomolgus monkey GPRC5D), PE anti-human IgG Fc detection, rMFI = MFI minus isotype control [label at the foot of D00092]
T7 construct: whole, on cells; Stably expressed on KMS-11 cells (KMS-11_cGPRC5D); also called cGPRC5D

[11] = target: T1, human GPRC5D; assay: flow cytometry on KHM-1B cells (human GPRC5D), culture supernatant, PE anti-human IgG Fc, rMFI over human IgG isotype control
Protocol: Human multiple myeloma cell line KHM-1B cells expressing GPRC5D were adjusted to a concentration of 2×10⁶ cells/mL with PBS containing 5% FBS, inoculated in an amount of 100 μL/well to a 96-well U-bottomed microplate, and centrifuged to remove a supernatant. The culture supernatant of each humanized anti-GPRC5D antibody obtained in Example 8)-3-1 or Human IgG isotype control antibody (Calbiochem/Merck Millipore Corp.) adjusted to 14 ng/mL to 30 μg/mL was added thereto in an amount of 100 μL/well, and the plate was left standing at 4° C. for 1 hour. The cells were washed twice with PBS containing 5% FBS. Then, R-Phycoerythrin AffiniPure F(ab′)2 Fragment Goat Anti-Human IgG, Fcγ Fragment Specific (Jackson ImmunoResearch Laboratories, Inc.) diluted 100-fold with PBS containing 5% FBS was added thereto in an amount of 100 μL/well, and the plate was left standing at 4° C. for 1 hour. The cells were washed twice with PBS containing 5% FBS and then resuspended in PBS containing 5% FBS, followed by detection using a flow cytometer (FACSCanto™ II; Becton, Dickinson and Company). The data was analyzed using Flowjo (Tree Star, Inc.). The PE fluorescence intensity of the cell fraction was plotted to a histogram, and the mean fluorescence intensity (MFI) was calculated. The MFI value of the control antibody was subtracted from the MFI value of the GPRC5D antibody to calculate a relative value of MFI (rMFI).

[12] = target: T4, rat anti-GPRC5D antibody 2A4; assay: flow cytometry competition on KMS-34 cells: the peptide without the intramolecular disulfide bond is added together with a fixed amount of 2A4; readout: binding of 2A4 to human GPRC5D on the cells
Protocol: as §2

[13] = target: T5, rat anti-GPRC5D antibody 7B4; assay: flow cytometry competition on KMS-34 cells: the peptide without the intramolecular disulfide bond is added together with a fixed amount of 7B4; readout: binding of 7B4 to human GPRC5D on the cells
Protocol: as §2

[14] = target: T6, rat anti-GPRC5D antibody 2B1; assay: flow cytometry competition on KMS-34 cells: the peptide without the intramolecular disulfide bond is added together with a fixed amount of 2B1; blocked: binding of 2B1 to human GPRC5D on the cells
Protocol: as §2

B1: human antibody C3048 scFv (scFv)
scFv: QVQLVQSGAEVKKPGSSVKVSCKASGGTFSRYAISWVRQAPGQGLEWMGGIIPIFGTANYAQKFQGRVTITADQSTRTAYMDLGRLRSEDTAVYYCALEGFRDSLKRNPFDIWGQGTMVTVSSGGGGSGGGGSGGGGSQSVVTQPPSVSAAPGQKVTISCSGGTTNIGSNYVSWYQQLPGTAPKFLMYENNKRPSGIPDRFSGSKSGTSATLAITGLQTGDEATYYCSTWDSSLNTGLFGGGTKLTVL
notes: also called C3048 antibody scFv; not shown: FLAG and His tags at the carboxyl terminus
Kd [1]: 0.36 nM | EC50 (read off the curve) [2]: ~10 nM | EC50 (read off the curve) [3]: ~3 nM | binding result [4]: binds

Binder: B3
binding result [7]: no binding (tested: 5000 nM) | binding result [8]: no binding (tested: 5000 nM) | IC50 (read off the curve) [9]: ~50 nM

Other lines, results leading:

EC50 (read off the curve) [5]: ~10 nM | binding result [6]: no binding
B2: human chimeric 2B1 (antibody, human IgG1, V domains shown)
VH: QVTLKESGPGILQPSQTLSLTCTFSGFSLNTYDMGVGWIRQPSGKGLEWLANIWWDDDKYYNPSLRNRLTISKDTSNNQAFLKITNVDTADTATYYCARIETVRVSRKGFAHWGQGTLVTVSS
VL: ETVMTQSPTSMSTSIGERVTLNCKASQSVGINVDWYQQTPGQSPKLLIYGASNRHTGVPDRFTGSGFGRDFTLTISNVEAEDLAVYYCLQHGSIPPTFGGGTKLELKR
notes: Human IgG1 / kappa constant regions

EC50 (read off the curve) [10]: ~4 nM | binding result [11]: binds
B4: humanized anti-GPRC5D antibody h2B1_H1/L2 (antibody, human IgG1, kappa, V domains shown)
VH: QVQLVESGGGLVKPSQTLSLTCTFSGFSLNTYDMGVGWIRQPPGKGLEWIGNIWWDDDKYYNPSLKSRVTISVDTSKNQASLKLSSVTAADTAVYYCARIETVRVSRKGFAHWGQGTLVTVSS
VL: DTVMTQSPDSLAVSLGERATINCKASQSVGINVDWYQQKPGQPPKLLIYGASNRHTGVPDRFSGSGFGTDFTLTISSLQAEDVAVYYCLQHGSIPPTFGQGTKVEIKR
notes: Human IgG1 / kappa

binding result [12]: no binding (tested: 5000 nM) | binding result [13]: no binding (tested: 5000 nM) | IC50 (read off the curve) [14]: ~50 nM
B5: human GPRC5D amino-terminal peptide …(Biotin)-NH2, lacking an intramolecular disulfide bond (peptide)
peptide: MYKDCIESTGDYFLLCDAEGPWGIILE(Biotin)-NH2
modifications: cysteine pairing not given here
notes: Sigma-Aldrich synthetic peptide; also called amino-terminal peptide of human GPRC5D (disulfide bond absent)
